Changes are numbered by the printed parent chain. In names and notes the source's numbering stands.

We go through 36 molecules from patent US20240343771A1 (Chugai, published 2024).

The labels stand for the following.
T1: human IL-12 (human, UniProt P29460 23-328; P29459 23-219)
T1 construct: also called Interleukin-12
T1 sequence 1: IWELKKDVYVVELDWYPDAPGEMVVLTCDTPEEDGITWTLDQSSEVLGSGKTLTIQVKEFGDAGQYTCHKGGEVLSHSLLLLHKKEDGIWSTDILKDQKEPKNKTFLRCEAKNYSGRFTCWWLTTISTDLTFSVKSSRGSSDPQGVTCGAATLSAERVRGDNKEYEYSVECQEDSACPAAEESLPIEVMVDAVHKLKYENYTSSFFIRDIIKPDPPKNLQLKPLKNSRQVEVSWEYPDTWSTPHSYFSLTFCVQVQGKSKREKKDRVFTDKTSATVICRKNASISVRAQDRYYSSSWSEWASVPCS
T1 sequence 2: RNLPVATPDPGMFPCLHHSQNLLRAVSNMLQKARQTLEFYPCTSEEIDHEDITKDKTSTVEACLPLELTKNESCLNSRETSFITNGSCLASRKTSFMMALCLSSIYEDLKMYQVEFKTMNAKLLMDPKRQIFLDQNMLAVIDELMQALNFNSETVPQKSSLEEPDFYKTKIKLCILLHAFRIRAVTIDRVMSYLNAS

B1: Anti-IL-12 antibody Ab1 variant F100aI VH/Y49A, F98L VL (antibody, name in Kabat numbering, V domains shown)
VH: QVQLVQSGAEVKKPGSSVKVSCKASGGTFSDYYLHWVRQAPGQGLEWMGWIDPENGDTEYAPKFQGRVTITADESTSTAYMELSSLRSEDTAVYYCARNKELRYIDVWGQGTLVTVSS
VL: DIVMTQSPLSLPVTPGEPASISCRASQSISINLHWYQQKPGQAPRLLIAFASQSISGVPSRFSGSGSGTDFTLTISSLQPEDFATYYCQQSNSFPLTLGQGTKVEIKR
notes: Ab1 with VH/VL interface substitutions; Kabat numbering
B2: Anti-IL-12 antibody Ab1 variant V37S VH/L46Q, Y49A VL (antibody, name in Kabat numbering, V domains shown)
VH: B1 VH with V37S, I105F
VL: B1 VL with L46Q, L98F
notes: as for B1
B3: Anti-IL-12 antibody Ab1 variant V37S, Y91M VH/L46Q, Y49A VL (antibody, name in Kabat numbering, V domains shown)
VH: B1 VH with V37S, Y95M, I105F
VL: B1 VL with L46Q, L98F
notes: as for B1
B4: Anti-IL-12 antibody Ab1 variant L45Q VH/Y49A, Y87L VL (antibody, name in Kabat numbering, V domains shown)
VH: B1 VH with L45Q, I105F
VL: B1 VL with Y87L, L98F
notes: as for B1
B5: Anti-IL-12 antibody Ab1 variant V37S VH/Y49A, F98L VL (antibody, name in Kabat numbering, V domains shown)
VH: B1 VH with V37S, I105F
VL: B1 VL
notes: as for B1
B6: Anti-IL-12 antibody Ab1 variant V37S VH/- (antibody, name in Kabat numbering, V domains shown)
VH: B1 VH with V37S, I105F
VL: B1 VL with A49Y, L98F
notes: as for B1
B7: Anti-IL-12 antibody Ab1 variant F100aI VH/Y49A, Y87L VL (antibody, name in Kabat numbering, V domains shown)
VH: B1 VH
VL: B1 VL with Y87L, L98F
notes: as for B1
B8: Anti-IL-12 antibody Ab1 variant V37S, L45Q VH/Y49A, Y87M VL (antibody, name in Kabat numbering, V domains shown)
VH: B1 VH with V37S, L45Q, I105F
VL: B1 VL with Y87M, L98F
notes: as for B1
B9: Anti-IL-12 antibody Ab1 variant G44Q VH/- (antibody, name in Kabat numbering, V domains shown)
VH: B1 VH with G44Q, I105F
VL: B1 VL with A49Y, L98F
notes: as for B1
B10: Anti-IL-12 antibody Ab1 variant L45Q VH/- (antibody, name in Kabat numbering, V domains shown)
VH: B1 VH with L45Q, I105F
VL: B1 VL with A49Y, L98F
notes: as for B1
B11: Anti-IL-12 antibody Ab1 variant V37S, L45Q VH/A43Q, Y49A VL (antibody, name in Kabat numbering, V domains shown)
VH: B1 VH with V37S, L45Q, I105F
VL: B1 VL with A43Q, L98F
notes: as for B1
B12: Anti-IL-12 antibody Ab1 variant W103I VH/L46Q, Y49A VL (antibody, name in Kabat numbering)
heavy: not shown
light: DIVMTQSPLSLPVTPGEPASISCRASQSISINLHWYQQKPGQAPRQLIAFASQSISGVPSRFSGSGSGTDFTLTISSLQPEDFATYYCQQSNSFPLTFGQGTKVEIKRTVAAPSVFIFPPSDEQLKSGTASVVCLLNNFYPREAKVQWKVDNALQSGNSQESVTEQDSKDSTYSLSSTLTLSKADYEKHKVYACEVTHQGLSSPVTKSFNRGEC
notes: as for B1
B13: Anti-IL-12 antibody Ab1 variant V37S, F100aI VH/L46Q, Y49A VL (antibody, name in Kabat numbering, V domains shown)
VH: B1 VH with V37S
VL: B1 VL with L46Q, L98F
notes: as for B1
B14: Anti-IL-12 antibody Ab1 variant W103M VH/A43Q, Y49A VL (antibody, name in Kabat numbering)
heavy: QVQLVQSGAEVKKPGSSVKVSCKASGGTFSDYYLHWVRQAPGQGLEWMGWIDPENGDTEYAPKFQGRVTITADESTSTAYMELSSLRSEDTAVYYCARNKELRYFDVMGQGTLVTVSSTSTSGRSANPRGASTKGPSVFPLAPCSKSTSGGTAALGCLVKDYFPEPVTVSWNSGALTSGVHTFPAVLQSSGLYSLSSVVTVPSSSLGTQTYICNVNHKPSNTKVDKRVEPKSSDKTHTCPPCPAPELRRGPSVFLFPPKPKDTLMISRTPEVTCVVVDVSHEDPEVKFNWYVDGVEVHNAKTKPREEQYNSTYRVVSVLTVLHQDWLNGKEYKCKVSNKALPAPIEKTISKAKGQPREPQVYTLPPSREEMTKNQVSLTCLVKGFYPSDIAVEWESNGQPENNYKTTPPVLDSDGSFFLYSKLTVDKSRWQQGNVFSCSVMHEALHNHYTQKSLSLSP
light: B12 light with A43Q, Q46L
notes: as for B1
B15: Anti-IL-12 antibody Ab1 variant W103L VH/A43Q, Y49A VL (antibody, name in Kabat numbering)
heavy: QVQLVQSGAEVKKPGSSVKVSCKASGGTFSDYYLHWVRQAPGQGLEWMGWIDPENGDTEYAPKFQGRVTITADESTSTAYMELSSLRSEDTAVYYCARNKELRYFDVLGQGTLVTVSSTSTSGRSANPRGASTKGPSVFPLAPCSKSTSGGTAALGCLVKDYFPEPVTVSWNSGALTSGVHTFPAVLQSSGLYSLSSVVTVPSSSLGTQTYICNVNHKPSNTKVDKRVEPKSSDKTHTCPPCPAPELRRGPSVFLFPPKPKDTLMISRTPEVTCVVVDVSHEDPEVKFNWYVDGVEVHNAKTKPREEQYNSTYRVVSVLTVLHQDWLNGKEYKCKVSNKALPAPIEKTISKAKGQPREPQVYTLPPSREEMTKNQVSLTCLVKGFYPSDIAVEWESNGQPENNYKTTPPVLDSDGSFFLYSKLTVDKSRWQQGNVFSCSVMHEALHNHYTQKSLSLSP
light: B12 light with A43Q, Q46L
notes: as for B1
B16: Anti-IL-12 antibody Ab1 variant V37S, W103M VH/A43Q, Y49A VL (antibody, name in Kabat numbering)
heavy: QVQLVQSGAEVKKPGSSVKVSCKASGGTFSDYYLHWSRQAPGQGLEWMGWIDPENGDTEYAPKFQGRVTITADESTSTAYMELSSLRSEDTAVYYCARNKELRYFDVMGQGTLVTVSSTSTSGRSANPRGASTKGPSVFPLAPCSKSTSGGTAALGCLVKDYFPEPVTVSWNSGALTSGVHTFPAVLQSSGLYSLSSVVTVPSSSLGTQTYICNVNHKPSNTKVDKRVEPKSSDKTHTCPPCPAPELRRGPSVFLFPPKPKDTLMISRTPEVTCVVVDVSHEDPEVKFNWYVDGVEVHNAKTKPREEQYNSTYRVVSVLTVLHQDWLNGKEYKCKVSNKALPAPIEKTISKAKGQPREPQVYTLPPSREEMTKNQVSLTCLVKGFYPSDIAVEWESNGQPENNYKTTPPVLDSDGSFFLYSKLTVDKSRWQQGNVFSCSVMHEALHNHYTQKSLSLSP
light: B12 light with A43Q, Q46L
notes: as for B1
B17: Anti-IL-12 antibody Ab1 variant V37S VH/Y49A, Y87L VL (antibody, name in Kabat numbering, V domains shown)
VH: B1 VH with V37S, I105F
VL: B1 VL with Y87L, L98F
notes: as for B1
B18: Anti-IL-12 antibody Ab1 variant L45A VH/- (antibody, name in Kabat numbering, V domains shown)
VH: B1 VH with L45A, I105F
VL: B1 VL with A49Y, L98F
notes: as for B1
B19: Anti-IL-12 antibody Ab1 variant L45Q VH/A43Q, Y49A VL (antibody, name in Kabat numbering, V domains shown)
VH: B1 VH with L45Q, I105F
VL: B1 VL with A43Q, L98F
notes: as for B1
B20: Anti-IL-12 antibody Ab1 variant W103A VH/- (antibody, name in Kabat numbering)
heavy: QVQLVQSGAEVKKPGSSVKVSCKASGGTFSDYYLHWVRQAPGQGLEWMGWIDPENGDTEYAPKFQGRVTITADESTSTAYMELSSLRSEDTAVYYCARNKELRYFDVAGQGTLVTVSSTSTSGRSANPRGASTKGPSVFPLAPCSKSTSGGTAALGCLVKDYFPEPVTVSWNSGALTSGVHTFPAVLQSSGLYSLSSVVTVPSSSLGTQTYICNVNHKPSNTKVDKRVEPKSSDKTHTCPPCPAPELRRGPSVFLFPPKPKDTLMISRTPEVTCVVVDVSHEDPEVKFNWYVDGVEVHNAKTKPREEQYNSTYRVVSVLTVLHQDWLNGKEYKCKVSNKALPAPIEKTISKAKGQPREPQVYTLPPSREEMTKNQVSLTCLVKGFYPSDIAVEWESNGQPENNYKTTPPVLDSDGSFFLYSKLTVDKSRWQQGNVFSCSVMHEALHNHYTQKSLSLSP
light: B12 light with Q46L, A49Y
notes: as for B1
B21: Anti-IL-12 antibody Ab1 variant W103M VH/- (antibody, name in Kabat numbering)
heavy: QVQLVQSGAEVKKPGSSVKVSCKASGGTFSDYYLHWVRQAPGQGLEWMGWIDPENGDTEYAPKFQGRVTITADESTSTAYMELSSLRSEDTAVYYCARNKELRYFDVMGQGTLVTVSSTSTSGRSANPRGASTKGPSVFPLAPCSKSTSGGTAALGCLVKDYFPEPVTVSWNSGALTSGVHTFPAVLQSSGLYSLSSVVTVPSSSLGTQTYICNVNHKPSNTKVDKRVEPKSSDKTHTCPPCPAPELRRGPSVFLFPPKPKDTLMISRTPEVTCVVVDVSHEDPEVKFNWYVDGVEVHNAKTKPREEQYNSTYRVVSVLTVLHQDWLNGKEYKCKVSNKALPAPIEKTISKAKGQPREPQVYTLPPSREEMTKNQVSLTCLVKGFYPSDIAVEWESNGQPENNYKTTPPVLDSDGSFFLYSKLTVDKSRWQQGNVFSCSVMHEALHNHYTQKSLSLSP
light: B12 light with Q46L, A49Y
notes: as for B1
B22: Anti-IL-12 antibody Ab1 variant W103I VH/P44A, Y49A VL (antibody, name in Kabat numbering)
heavy: not shown
light: B12 light with P44A, Q46L
notes: as for B1
B23: Anti-IL-12 antibody Ab1 variant V37S VH/L46Q, Y49A, Y87M VL (antibody, name in Kabat numbering, V domains shown)
VH: B1 VH with V37S, I105F
VL: B1 VL with L46Q, Y87M, L98F
notes: as for B1
B24: Anti-IL-12 antibody Ab1 variant V37Q VH/- (antibody, name in Kabat numbering, V domains shown)
VH: B1 VH with V37Q, I105F
VL: B1 VL with A49Y, L98F
notes: as for B1
B25: Anti-IL-12 antibody Ab1 variant W103L VH/P44A, Y49A VL (antibody, name in Kabat numbering)
heavy: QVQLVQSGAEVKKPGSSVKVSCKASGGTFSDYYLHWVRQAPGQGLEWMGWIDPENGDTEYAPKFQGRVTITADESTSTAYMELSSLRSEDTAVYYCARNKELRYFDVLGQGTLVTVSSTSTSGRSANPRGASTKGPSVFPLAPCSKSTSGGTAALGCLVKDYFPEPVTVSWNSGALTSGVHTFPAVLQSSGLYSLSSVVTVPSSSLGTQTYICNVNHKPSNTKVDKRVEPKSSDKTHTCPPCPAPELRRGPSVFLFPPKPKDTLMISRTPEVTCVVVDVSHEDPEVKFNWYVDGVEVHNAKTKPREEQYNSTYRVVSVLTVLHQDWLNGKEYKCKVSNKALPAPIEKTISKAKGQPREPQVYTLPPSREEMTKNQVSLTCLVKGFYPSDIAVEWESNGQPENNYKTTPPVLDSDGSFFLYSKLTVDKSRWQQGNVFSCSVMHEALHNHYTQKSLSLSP
light: B12 light with P44A, Q46L
notes: as for B1
B26: Anti-IL-12 antibody Ab1 variant W103L VH/- (antibody, name in Kabat numbering)
heavy: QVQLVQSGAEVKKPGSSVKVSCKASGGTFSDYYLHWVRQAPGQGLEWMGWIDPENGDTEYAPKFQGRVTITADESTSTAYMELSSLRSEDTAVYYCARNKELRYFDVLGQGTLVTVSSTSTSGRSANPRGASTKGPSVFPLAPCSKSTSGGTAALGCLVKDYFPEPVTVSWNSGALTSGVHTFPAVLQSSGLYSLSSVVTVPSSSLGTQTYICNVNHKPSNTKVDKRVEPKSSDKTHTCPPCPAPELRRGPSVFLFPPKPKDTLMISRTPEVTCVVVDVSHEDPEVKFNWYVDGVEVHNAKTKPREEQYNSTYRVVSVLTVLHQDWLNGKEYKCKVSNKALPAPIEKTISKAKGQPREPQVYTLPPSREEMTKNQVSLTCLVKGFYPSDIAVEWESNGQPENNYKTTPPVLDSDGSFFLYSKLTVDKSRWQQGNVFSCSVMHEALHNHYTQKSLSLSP
light: B12 light with Q46L, A49Y
notes: as for B1
B27: Anti-IL-12 antibody Ab1 variant L45Q VH/L46Q, Y49A VL (antibody, name in Kabat numbering, V domains shown)
VH: B1 VH with L45Q, I105F
VL: B1 VL with L46Q, L98F
notes: as for B1
B28: Anti-IL-12 antibody Ab1 variant V37S, Y91M VH/A43Q, Y49A VL (antibody, name in Kabat numbering, V domains shown)
VH: B1 VH with V37S, Y95M, I105F
VL: B1 VL with A43Q, L98F
notes: as for B1
B29: Anti-IL-12 antibody Ab1 variant L45Q VH/P44A, Y49A VL (antibody, name in Kabat numbering, V domains shown)
VH: B1 VH with L45Q, I105F
VL: B1 VL with P44A, L98F
notes: as for B1
B30: Anti-IL-12 antibody Ab1 variant V37S, F100aI VH/A43Q, Y49A VL (antibody, name in Kabat numbering, V domains shown)
VH: B1 VH with V37S
VL: B1 VL with A43Q, L98F
notes: as for B1
B31: Anti-IL-12 antibody Ab1 variant W103L VH/Y49A, Y87L VL (antibody, name in Kabat numbering)
heavy: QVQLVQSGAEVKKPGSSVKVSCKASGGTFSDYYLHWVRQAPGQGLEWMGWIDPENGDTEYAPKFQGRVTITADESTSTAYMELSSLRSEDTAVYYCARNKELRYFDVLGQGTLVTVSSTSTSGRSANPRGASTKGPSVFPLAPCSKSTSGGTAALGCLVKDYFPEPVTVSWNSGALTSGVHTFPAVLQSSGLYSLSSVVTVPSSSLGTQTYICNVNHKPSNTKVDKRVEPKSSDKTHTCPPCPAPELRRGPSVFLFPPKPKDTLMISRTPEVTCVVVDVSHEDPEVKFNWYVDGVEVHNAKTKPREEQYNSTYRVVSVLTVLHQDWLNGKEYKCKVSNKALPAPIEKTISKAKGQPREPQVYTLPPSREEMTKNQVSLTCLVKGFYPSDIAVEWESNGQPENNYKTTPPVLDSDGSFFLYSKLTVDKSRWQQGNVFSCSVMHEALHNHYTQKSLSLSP
light: B12 light with Q46L, Y87L
notes: as for B1
B32: Anti-IL-12 antibody Ab1 variant V37S VH/P44A, Y49A VL (antibody, name in Kabat numbering, V domains shown)
VH: B1 VH with V37S, I105F
VL: B1 VL with P44A, L98F
notes: as for B1
B33: Anti-IL-12 antibody Ab1 variant W103I VH/A43Q, Y49A VL (antibody, name in Kabat numbering)
heavy: not shown
light: B12 light with A43Q, Q46L
notes: as for B1
B34: Anti-IL-12 antibody Ab1 variant L45Q VH/Y49A, F98M VL (antibody, name in Kabat numbering, V domains shown)
VH: B1 VH with L45Q, I105F
VL: B1 VL with L98M
notes: as for B1
B35: Anti-IL-12 antibody Ab1 variant W103L VH/L46Q, Y49A VL (antibody, name in Kabat numbering)
heavy: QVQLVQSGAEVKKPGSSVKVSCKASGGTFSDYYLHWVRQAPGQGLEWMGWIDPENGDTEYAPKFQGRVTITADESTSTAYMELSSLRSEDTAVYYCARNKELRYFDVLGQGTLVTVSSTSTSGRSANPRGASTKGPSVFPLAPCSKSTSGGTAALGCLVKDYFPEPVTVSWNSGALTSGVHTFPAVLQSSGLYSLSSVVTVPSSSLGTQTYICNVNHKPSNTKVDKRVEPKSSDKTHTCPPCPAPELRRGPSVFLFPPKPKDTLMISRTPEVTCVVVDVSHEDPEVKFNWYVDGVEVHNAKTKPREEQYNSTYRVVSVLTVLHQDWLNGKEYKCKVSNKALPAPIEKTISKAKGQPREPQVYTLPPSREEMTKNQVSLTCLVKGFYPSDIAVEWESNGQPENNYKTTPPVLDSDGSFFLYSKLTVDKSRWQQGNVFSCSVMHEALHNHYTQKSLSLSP
light: B12 light
notes: as for B1
B36: Anti-IL-12 antibody Ab1 variant V37S VH/A43Q, Y49A VL (antibody, name in Kabat numbering)
heavy: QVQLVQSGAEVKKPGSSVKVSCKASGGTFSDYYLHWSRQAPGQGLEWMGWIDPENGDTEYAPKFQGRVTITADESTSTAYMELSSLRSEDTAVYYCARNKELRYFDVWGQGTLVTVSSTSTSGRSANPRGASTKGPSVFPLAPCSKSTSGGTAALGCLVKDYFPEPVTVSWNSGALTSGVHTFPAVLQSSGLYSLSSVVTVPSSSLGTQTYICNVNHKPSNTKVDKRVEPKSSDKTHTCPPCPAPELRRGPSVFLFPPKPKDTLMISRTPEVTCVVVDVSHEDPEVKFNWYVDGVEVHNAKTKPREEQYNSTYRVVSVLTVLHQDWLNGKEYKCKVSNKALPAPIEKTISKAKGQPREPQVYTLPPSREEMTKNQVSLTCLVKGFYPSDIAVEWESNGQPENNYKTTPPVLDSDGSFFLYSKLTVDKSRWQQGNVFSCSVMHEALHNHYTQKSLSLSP
light: B12 light with A43Q, Q46L
notes: as for B1

This test addresses T1, human IL-12. Nature of the test: SPR (Biacore T200), 37 C, pH 7.4; captured antibody, IL-12 analyte. Here is the method:
The affinity of anti-IL-12 antibodies binding to human IL-12 at pH 7.4 were determined at 37 degrees C. using Biacore T200 instrument (Cytiva). Anti-human Fc antibody (Cytiva) was immobilized onto all flow cells (FCs) of a CM4 sensor chip using amine coupling kit (Cytiva). All antibodies and analytes were prepared in ACES pH 7.4 containing 20 mM ACES, 150 mM NaCl, 0.05% Tween 20, 0.005% NaN₃. Each antibody was captured onto the sensor surface by anti-human Fc antibody. Antibody capture levels were aimed at 50 response unit (RU). 5 nM of human IL-12 were injected as analyte, followed by dissociation. Sensor surface was regenerated each cycle with 3M MgCl₂. […] Based on the results in Table 9, it is observed that binding kinetics of anti-IL-12 antibody AbI variants towards IL-12 were not drastically changed compared to control (−/−).
Background: Surface plasmon resonance follows binding to a sensor surface in real time, without labels.
Broadly, the Kd is the constant that tells how readily two partners part at equilibrium. Take B1: the equilibrium dissociation constant (Kd) stood at 1.44 nM. To B2 belongs 3.06 nM. The result for B3 reads 3.44 nM; that for B4, 3.61 nM; that for B5, 0.982 nM.

In turn, B6 yielded a Kd of 0.789 nM.

The molecule B7 had a Kd of 2.1 nM.

As to B8, the affinity, expressed as Kd, was 2.92 nM. The Kd values of the last two molecules are within 1.5-fold of each other. To B9 belongs 0.793 nM; to B10, 1.3 nM; to B11, 3.13 nM. To B12 belongs 4.86 nM; to B13, 2.98 nM; to B14, 1.45 nM. Consider B15, for which the affinity, expressed as Kd, was 1.12 nM.

B16 returned a dissociation constant Kd of 0.828 nM. As to B17, the dissociation constant (Kd) turned out to be 3.04 nM. The result for B18 reads 1.27 nM; that for B19, 2.23 nM. Molecule B20 registered an equilibrium dissociation constant (Kd) of 0.331 nM.

As to B21, binding was put at a Kd of 0.631 nM. To B22 belongs 1.57 nM; to B23, 3.87 nM. The result for B24 reads 1.48 nM; that for B25, 1.34 nM. To B26 belongs 0.549 nM; to B27, 2.82 nM; to B28, 1.79 nM.

Molecule B29 came in with a Kd of 2.74 nM. As to B30, the dissociation constant (Kd) is 1.12 nM.

As to B31, the dissociation constant (Kd) was 1.51 nM. Regarding B32, the Kd was 2.96 nM. To B33 belongs 1.6 nM; to B34, 3.27 nM; to B35, 3.86 nM.

Molecule B36 returned a Kd of 1.49 nM. This Kd is about 2.6-fold lower than that of the molecule before.
